In assay [1] the target is human FcγRIIIa (human) (UniProt P08637).
In assay [2] the target is human FcγRI (human) (UniProt P12314). The assay can be described thus: SPR; Biacore T200; hFcγRI captured on an NTA chip loaded with Ni2+ (≈200 RU); AvFc flowed over, 5 concentrations from 324 nM in 1:3 dilutions; regeneration 350 mM EDTA; 1:1 binding model. For orientation: In SPR one partner is held on a chip, and binding of the other changes the refractive index at the surface.

In assay [3] the target is human FcγRIIIa (human) (UniProt P08637). Put plainly: SPR; Biacore T200; receptor captured by its 6xHis tag on an anti‐6xHis antibody amine‐coupled to a CM5 chip; AvFc variants flowed over, 5 concentrations from 2 μM in 1:2 dilutions, 30 μL/min, 240 s association, 600 s dissociation; 1:1 binding model.
Assay [4] has as its target mouse FcγRIV (mouse). Described as above.

mouse FcγRIV (mouse), sequence (A0A0B4J1G0 21-203): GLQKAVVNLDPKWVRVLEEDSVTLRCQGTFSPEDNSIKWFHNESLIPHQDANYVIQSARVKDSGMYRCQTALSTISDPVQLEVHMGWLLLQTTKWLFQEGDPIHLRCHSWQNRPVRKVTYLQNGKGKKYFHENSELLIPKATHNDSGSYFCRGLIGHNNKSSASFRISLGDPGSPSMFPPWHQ
human FcγRI (human), sequence (P12314 16-292): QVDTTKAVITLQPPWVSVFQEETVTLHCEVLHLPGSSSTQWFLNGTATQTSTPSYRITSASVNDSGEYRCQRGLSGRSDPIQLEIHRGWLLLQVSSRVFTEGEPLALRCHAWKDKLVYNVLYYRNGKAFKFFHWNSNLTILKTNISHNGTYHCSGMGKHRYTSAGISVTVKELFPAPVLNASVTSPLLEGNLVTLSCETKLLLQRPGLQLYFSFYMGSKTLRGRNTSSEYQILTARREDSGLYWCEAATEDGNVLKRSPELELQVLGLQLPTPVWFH

In assay [1], “Avaren‐Fc expressed in glycoengineered ΔXylT/ΔFucT N. benthamiana (AvFc^ΔXF) (Fc fusion)” came in with an ADCC reporter assay: luciferase in Jurkat effector cells expressing hFcγRIIIa, B16F10 target cells, AvFc 650 nM to 8.32 pM; EC50 of 2.75 nM. This substance gave an ADCC reporter assay: luciferase in Jurkat effector cells expressing hFcγRIIIa, B16F10 target cells, AvFc 650 nM to 8.32 pM; highest luciferase induction in assay [1] of 5.5 fold. In addition, the fold increase in affinity over AvFc^WT was determined as 1.9 fold in assay [2], 3.8 fold in assay [3] and 5.5 fold in assay [4].

In assay [1], “Avaren‐Fc expressed in wild‐type N. benthamiana (AvFc^WT) (Fc fusion)” gave an ADCC reporter assay: luciferase in Jurkat effector cells expressing hFcγRIIIa, B16F10 target cells, AvFc 650 nM to 8.32 pM; EC50 of 13.8 nM and an ADCC reporter assay: luciferase in Jurkat effector cells expressing hFcγRIIIa, B16F10 target cells, AvFc 650 nM to 8.32 pM; highest luciferase induction of 2.9 fold.

The values are drawn from paper PMC9616523.
